Laboratory results taken from patent publication US20240270821A1, “GIP/GLP1/GCG TRI-RECEPTOR AGONISTS AND USES THEREOF” (priority 2023, published 2024).

T1: human GIP receptor (human) (UniProt P48546)
T1 sequence (looked up): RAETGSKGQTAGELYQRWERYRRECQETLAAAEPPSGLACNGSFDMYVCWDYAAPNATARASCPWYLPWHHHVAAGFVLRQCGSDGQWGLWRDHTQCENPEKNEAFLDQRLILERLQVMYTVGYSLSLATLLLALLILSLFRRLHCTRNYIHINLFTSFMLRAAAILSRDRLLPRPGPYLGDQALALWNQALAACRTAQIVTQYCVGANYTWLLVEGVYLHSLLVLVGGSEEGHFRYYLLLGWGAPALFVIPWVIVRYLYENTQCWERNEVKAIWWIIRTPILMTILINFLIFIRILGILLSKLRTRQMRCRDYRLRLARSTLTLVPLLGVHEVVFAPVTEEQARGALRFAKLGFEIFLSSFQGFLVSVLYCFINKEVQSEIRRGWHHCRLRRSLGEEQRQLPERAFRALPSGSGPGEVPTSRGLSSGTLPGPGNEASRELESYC

B1: Example 1100 (peptide)
chain: YXQGTFTSDXSQXLDXKAQXQFIEXLIAXGPSSGEPPPSGSEE
modifications: non-natural residues; Lys acylated AEEA-γGlu-C18 diacid; C-terminal amide; synthetic construct; SITE 2: note = 2-Aminoisobutyric Acid; SITE 10: note = 3-(4-Pyridyl)-L-alanine; SITE 13: note = alpha-methyl-leucine; SITE 16: note = L-ornithine; SITE 17: note = Lysine is chemically modified through conjugation of the epsilon-amino group of the Lysine side chain with (2-[2-(2-
B2: Example 1096 (peptide)
chain: YXQGTFTSDXSQXLDXKAQXAFIEYLIQXGPSSGEPPPSGSEE
modifications: non-natural residues; lipidated Lys AEEA-γGlu-C18 diacid; C-term amide; synthetic construct; SITE 2: note = 2-Aminoisobutyric Acid; SITE 10: note = 3-(4-Pyridyl)-L-alanine; SITE 13: note = alpha-methyl-leucine; SITE 16: note = L-ornithine; SITE 17: note = Lysine is chemically modified through conjugation of the epsilon-amino group of the Lysine side chain with (2-[2-(2-
B3: Example 1097 (peptide)
chain: YXQGTFTSDXSQXLDXKAQXAFIEXLIEXGPSSGEPPPSGSEE
modifications: non-natural residues; acylated Lys; C-terminal amide; synthetic construct; SITE 2: note = 2-Aminoisobutyric Acid; SITE 10: note = 3-(4-Pyridyl)-L-alanine; SITE 13: note = alpha-methyl-leucine; SITE 16: note = L-ornithine; SITE 17: note = Lysine is chemically modified through conjugation of the epsilon-amino group of the Lysine side chain with (2-[2-(2-
B4: Example 1093 (peptide)
chain: YXQGTFTSDXSQXLDXKAQXAFIEXLIEXGPSSGEPPPSGSEE
modifications: non-natural residues, C18 diacid-(γGlu)2 acyl on K, C-terminal amide; synthetic construct; SITE 2: note = 2-Aminoisobutyric Acid; SITE 10: note = 3-(4-Pyridyl)-L-alanine; SITE 13: note = alpha-methyl-leucine; SITE 16: note = L-ornithine; SITE 17: note = Lysine is chemically modified through conjugation of the epsilon-amino group of the Lysine side chain with (gamma-Gl)
B5: Example 1090 (peptide)
chain: YXQGTFTSDXSQXLDKKAQXAFIEYLIAGGPSSGAPPPSGEEE
modifications: acylated Lys, C-terminal amide, non-natural residues; synthetic construct; SITE 2: note = 2-Aminoisobutyric Acid; SITE 10: note = 3-(4-Pyridyl)-L-alanine; SITE 13: note = alpha-methyl-leucine; SITE 17: note = Lysine is chemically modified through conjugation of the epsilon-amino group of the Lysine side chain with (Glu)2-(gamma-Glu)-CO-(CH2)16-CO2H; SI
B6: Example 1074 (peptide)
chain: YXQGTFTSDXSQXLDXKAQXAFIEXLIAGGPSSGAPPPSGSEE
modifications: non-natural residues; C18 diacid-γ-Glu acyl on Lys; C-terminal amide; synthetic construct; SITE 2: note = 2-Aminoisobutyric Acid; SITE 10: note = 3-(4-Pyridyl)-L-alanine; SITE 13: note = alpha-methyl-leucine; SITE 16: note = L-ornithine; SITE 17: note = Lysine is chemically modified through conjugation of the epsilon-amino group of the Lysine side chain with D-Glutami
B7: Example 1089 (peptide)
chain: YXQGTFTSDXSQXLDKKAQXAFIEYLIAGGPSSGAPPPSGEEE
modifications: non-natural residues; acylated Lys; C-terminal amide; synthetic construct; SITE 2: note = 2-Aminoisobutyric Acid; SITE 10: note = 3-(4-Pyridyl)-L-alanine; SITE 13: note = alpha-methyl-leucine; SITE 17: note = Lysine is chemically modified through conjugation of the epsilon-amino group of the Lysine side chain with (Glu)-(gamma-Glu)-CO-(CH2)16-CO2H; SIT
B8: Example 1073 (peptide)
chain: YXQGTFTSDXSQXLDXKAQXAFIQXLIEGGPSSGAPPPSGSEEE
modifications: non-natural residues, acylated Lys (γGlu-C18 diacid), C-terminal amide; synthetic construct; SITE 2: note = 2-Aminoisobutyric Acid; SITE 10: note = 3-(4-Pyridyl)-L-alanine; SITE 13: note = alpha-methyl-leucine; SITE 16: note = L-ornithine; SITE 17: note = Lysine is chemically modified through conjugation of the epsilon-amino group of the Lysine side chain with D-Glutami
B9: Example 1082 (peptide)
chain: YXQGTFTSDXSQXLDXKAQXAFIEXLLAGGPSSGAPPPSGSEEE
modifications: Lys acylated γGlu-C18 diacid; non-natural residues; C-amide; synthetic construct; SITE 2: note = 2-Aminoisobutyric Acid; SITE 10: note = 3-(4-Pyridyl)-L-alanine; SITE 13: note = alpha-methyl-leucine; SITE 16: note = L-ornithine; SITE 17: note = Lysine is chemically modified through conjugation of the epsilon-amino group of the Lysine side chain with D-Glutami
B10: Example 1084 (peptide)
chain: YXQGTFTSDXSQXLDXKAQXQFIEXLLAGGPSSGAPPPSGSEEE
modifications: not fully specified; Lys acylated γGlu-C18 diacid; non-natural residues; C-terminal amide; synthetic construct; SITE 2: note = 2-Aminoisobutyric Acid; SITE 10: note = 3-(4-Pyridyl)-L-alanine; SITE 13: note = alpha-methyl-leucine; SITE 16: note = L-ornithine; SITE 17: note = Lysine is chemically modified through conjugation of the epsilon-amino group of the Lysine side chain with D-Glutami
B11: Example 1083 (peptide)
chain: YXQGTFTSDXSQXLDXKAQXAFIQXLLEGGPSSGAPPPSGSEEE
modifications: Aib, 4Pal, Orn, Me4Pal, αMeY; acylated lysine; amide; synthetic construct; SITE 2: note = 2-Aminoisobutyric Acid; SITE 10: note = 3-(4-Pyridyl)-L-alanine; SITE 13: note = alpha-methyl-leucine; SITE 16: note = L-ornithine; SITE 17: note = Lysine is chemically modified through conjugation of the epsilon-amino group of the Lysine side chain with D-Glutami
B12: Example 1077 (peptide)
chain: YXQGTFTSDXSQXLDXKAQXAFIQXLIEGGPSSGAPPPSGSEEE
modifications: Glu-γGlu-C18 diacid on Lys; non-natural residues; amide; synthetic construct; SITE 2: note = 2-Aminoisobutyric Acid; SITE 10: note = 3-(4-Pyridyl)-L-alanine; SITE 13: note = alpha-methyl-leucine; SITE 16: note = L-ornithine; SITE 17: note = Lysine is chemically modified through conjugation of the epsilon-amino group of the Lysine side chain with (Glu)-(ga)
B13: Example 1081 (peptide)
chain: YXQGTFTSDXSQXLDXKAQXQFIEXLIAGGPSSGAPPPSGSEEE
modifications: Aib, 4Pal, Orn, Me4Pal, alpha-methyl-Tyr, lipidated Lys, amide; synthetic construct; SITE 2: note = 2-Aminoisobutyric Acid; SITE 10: note = 3-(4-Pyridyl)-L-alanine; SITE 13: note = alpha-methyl-leucine; SITE 16: note = L-ornithine; SITE 17: note = Lysine is chemically modified through conjugation of the epsilon-amino group of the Lysine side chain with D-Glutami
B14: Example 1076 (peptide)
chain: YXQGTFTSDXSQXLDXKAQXAFIQXLIEGGPSSGAPPPSGSEEE
modifications: non-natural residues (Aib, 4Pal, Orn, Me4Pal, αMeY); lipidated K; amide; synthetic construct; SITE 2: note = 2-Aminoisobutyric Acid; SITE 10: note = 3-(4-Pyridyl)-L-alanine; SITE 13: note = alpha-methyl-leucine; SITE 16: note = L-ornithine; SITE 17: note = Lysine is chemically modified through conjugation of the epsilon-amino group of the Lysine side chain with D-Glutami

How the values were obtained:
Assay in all cases: cell-based or functional assay
[1] = molecular target: human glucagon receptor (human) (UniProt P47871)
[2] = molecular target: T1, human GIP receptor (human)
hGLP-1R = hGLP-1R (Homo sapiens, UniProt P43220)
Chain of hGLP-1R (P43220 24-463): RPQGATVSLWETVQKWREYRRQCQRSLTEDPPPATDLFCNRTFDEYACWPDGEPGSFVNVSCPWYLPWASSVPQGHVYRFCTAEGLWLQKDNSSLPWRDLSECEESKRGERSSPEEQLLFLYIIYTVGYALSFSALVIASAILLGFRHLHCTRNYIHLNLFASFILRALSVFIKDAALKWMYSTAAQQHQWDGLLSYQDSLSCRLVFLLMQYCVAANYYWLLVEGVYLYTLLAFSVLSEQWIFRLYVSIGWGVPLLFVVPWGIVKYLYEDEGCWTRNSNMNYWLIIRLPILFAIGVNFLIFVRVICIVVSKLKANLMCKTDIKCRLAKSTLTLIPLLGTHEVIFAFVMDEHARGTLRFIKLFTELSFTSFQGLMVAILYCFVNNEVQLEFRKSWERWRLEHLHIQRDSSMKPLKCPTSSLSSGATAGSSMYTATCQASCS

Chain of human glucagon receptor (human) (P47871 26-477): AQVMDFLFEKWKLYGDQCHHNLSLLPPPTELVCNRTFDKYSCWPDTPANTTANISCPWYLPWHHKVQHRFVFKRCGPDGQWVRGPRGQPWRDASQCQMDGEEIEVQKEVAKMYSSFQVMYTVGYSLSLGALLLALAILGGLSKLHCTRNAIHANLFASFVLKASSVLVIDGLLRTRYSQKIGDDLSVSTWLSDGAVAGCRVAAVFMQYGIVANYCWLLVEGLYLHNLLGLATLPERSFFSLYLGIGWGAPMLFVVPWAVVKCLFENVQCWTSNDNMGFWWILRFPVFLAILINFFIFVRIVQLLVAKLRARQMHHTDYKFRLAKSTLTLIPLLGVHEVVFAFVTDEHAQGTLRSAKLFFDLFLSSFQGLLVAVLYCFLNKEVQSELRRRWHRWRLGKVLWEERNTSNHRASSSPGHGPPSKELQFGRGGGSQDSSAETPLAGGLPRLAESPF

Row | Binder | Relative cAMP EC50 [1] [nM] | cAMP Rel EC50 (1% HSA) [1] [nM] | Relative cAMP EC50 [2] [nM] | cAMP Rel EC50 (1% HSA) [2] [nM] | Relative cAMP EC50 (hGLP-1R) [nM] | cAMP Rel EC50 (1% HSA) (hGLP-1R) [nM]
1 | B1 | 5.28 | 577 | 0.0694 | 9.04 | 0.514 | 77.2
2 | B2 | 3.94 | 397 | 0.0799 | 11.6 | 1.47 | 194
3 | B3 | 6.16 | 752 | 0.136 | 27.3 | 1.59 | 141
4 | B4 | 7.72 | 958 | 0.152 | 26.8 | 0.954 | 141
5 | B5 | 15.6 | 2010 | 0.272 | 27.3 | 5.44 | 619
6 | B6 | 22.8 | 1990 | 0.0745 | 8.49 | 0.794 | 101
7 | B7 | 14 | 2580 | 0.213 | 34.6 | 2.96 | 449
8 | B8 | 12.3 | 1490 | 0.201 | 15.7 | 1.09 | 114
9 | B9 | 12.3 | 1530 | 0.099 | 12.3 | 4.13 | 677
10 | B10 | 11.5 | 1390 | 0.0975 | 17.2 | 10.3 | 761
11 | B11 | 15 | 1030 | 0.328 | 20.5 | 7.76 | 547
12 | B12 | 18.8 | 3160 | 0.23 | 27.8 | 1.48 | 408
13 | B13 | 19.7 | 2130 | 0.105 | 8.44 | 1.29 | 151
14 | B14 | 59 | 1650 | 0.174 | 20.2 | 1.47 | 187
